Measured values from US20090011000A1, “Inhibitors of Infection” (priority 2004, published 2009).
Read-outs that look alike come from different tables or passages of the source.

B1: chrtm5: gp41 residues 118 to 200 with N-terminal HIS-tag, TEV and Enterokinase protease sites, transmembrane region, five cytoplasmic residues (protein)
chain: PCVKLTPLCVSLKCTDLKNDTNTNSSSGRMIMEKGEIKNCSFNISTSIRGKVQKEYAFFYKLDIIPIDNDTTSYKLTSCNTSV
modifications: left off: small tags and cut ends
notes: gp41 residues 118 to 200 with N-terminal HIS-tag, TEV and Enterokinase protease sites, transmembrane region, five cytoplasmic residues

Assays:
HIVNL-4.3 = conditions: single round infection assay, TZM-b1 cells
Text: Two days later, infection cells were lysed and expression of luciferase activity measured.
HIV Neutralization assay.
These C-terminal peptides interact with the N-terminal coiled coil of gp41 thus blocking the refolding of gp41 into the six helical bundle structure ({115}, {116}. {117} and {39}).

mAb 2F5 = experiment: Pull down assay of chrtm5 with mAb 2F5; assay type: binding
Experimental: (§1) Lane 1—marker; Lane 2—control without antibody; Lane 3—mAb 2F5; and Lane 4—mAb 4E10.
(§2) Pull down assays were then performed to determine whether chrtm5 interacts with the neutralizing antibodies 2F5 and 4E10.

rabbits = experiment: Immunization of rabbits with chrtm5 proteoliposomes, Western blot of serum; assay type: in vivo; conditions: chrtm5 incorporated into proteoliposomes, two rounds of immunization, preliminary
Experimental: The oligomeric forms of CHRTM5 are indicated by numbers. The same pattern was obtained with serum dilutions of 1:50, 1:100 and 1:1000.
Liposome preparation. Phospholipids were dissolved in chloroform and dried under a steam of nitrogen. Lipid films were resuspended in reconstitution buffer (25 mM HEPES pH 7.4, 0.1 M KCl). The turbid MLV suspension was passed 21 times through a polycarbonate membrane to give large unilamellar vesicles (LUV) with a diameter of 100 nm. LUVs were solubilized with 20 mM β-OG for one hour at 4° C., and afterwards incubated with protein for an additional hour. The proteoliposome solution was dialyzed with a Liposomat against reconstitution buffer for three hours at room temperature. Pure proteoliposomes were separated from excess protein by gel filtration through a Sephadex G-50 column and were collected by ultracentrifugation at 250000×g for one hour at 4° C. The pellet of pure proteoliposomes was resuspended in reconstitution buffer. The proteoliposomes were used in immunization studies to determine the immunogenicity in rabbits.
chrtm5 can be incorporated into liposomes, which were used for immunization studies.

mAb 4E10 = experiment: Pull down assay of chrtm5 with mAb 4E10; assay type: binding
Experimental: as §1, §2

mAb 2F5 Fabs = experiment: chrtm5/2F5 Fab complex, Superdex 200 gel filtration and SDS-PAGE; assay type: binding; conditions: gel filtration, peak analysed by SDS-PAGE
Experimental: Chrtm5/2F5 Fab complexes were formed and purified on a Superdex 200 gel filtration column.
Fractions corresponding to the major peak shown in FIG. 10 were separated by SDS-PAGE and stained with Coomassie brilliant blue.
The oligomeric nature of chrtm5 was then further confirmed by purifying chrtm5 in complex with mAb 2F5 Fabs. This complex formation shifts the gel filtration profile to a larger molecular weight and chrtm5/2F5-Fab complexes elute at ˜12.5 ml (FIG. 10).

Molecule | IC50 (HIVNL-4.3; HIVNL-4.3, luciferase activity 2 days later) [µg/mL] | IC50 (HIVNL-4.3; HIVNL-4.3, molar value in brackets) [nM] | pull down by antibody 2F5 (mAb 2F5) | immunogenicity (rabbits) | pull down by antibody 4E10 (mAb 4E10) | complex formation with mAb 2F5 Fabs (mAb 2F5 Fabs)
enfuvirtide | 0.2 | 45 | – | – | – | –
B1 | – | – | both antibodies pull down chrtm5 | immunogenic in rabbits | both antibodies pull down chrtm5 | the peak contains both chrtm5 and 2F5 Fab fragments
